{"source": "patent US8709741B2", "about": "“Methods of diagnosing a plasmodium infection” (priority 2009, dated 2014)", "key": {"[1]": {"test_system": "P. falciparum", "assay": "Anti-Plasmodium activity assay in Albumax II (serum substitute)", "format": "cell-based", "conditions": "Albumax II", "experimental": "The chloroquine-resistant P. falciparum FcB1/Colombian strain was used. Under the following culture conditions, the in vitro life cycle of the FcB1 strain was 48 hours. Cultures were grown in complete medium consisting of RPMI 1640 (Life Technologies, Inc.) supplemented with 11 mM glucose, 27.5 mM NaHCO3, 100 UI/mL penicillin, 100 μg/mL streptomycin, adjusted to pH 7.4 before addition of heat-inactivated human serum (A+ blood group, 8% final) or Albumax II® (0.5% final), according to the procedure of Trager and Jensen (1976). Parasites were routinely grown at 37° C. in human A+ RBCs (Red blood cells) at a 2% haematocrit and 2-6% parasitemia, in a 3% CO2, 6% O2 and 91% N2 atmosphere. Semi-synchronized cultures were established by Sorbitol (Lambros) treatment. […] Parasitaemia and stage distribution were determined by optical examination of Diff-Quick stained culture smears. […]\nDried preparations of the purified recombinant human sPLA2s were re-suspended at high concentration (usually 50 μM) in RPMI 0.05% BSA, and then tested individually for their capacity to inhibit the in vitro intra-erythrocytic development of P. falciparum. […] Radioactivity was measured with a 1450 Microbeta counter (Wallac, Perkin Elmer). Percentage of growth inhibition was calculated from the parasite-associated radioactivity compared with control without sPLA2. Values for the IC50 were determined from dose-response curves. […]"}, "[2]": {"test_system": "P. falciparum-infected erythrocytes", "assay": "GX sPLA2 lipolysis of infected red blood cells, young and mature stages (NEFA)", "format": "cell-based, human", "conditions": "no serum, 5 h at 37° C.", "experimental": "A semi-synchronous culture of P. falciparum (2.5% parasitaemia) was analysed for sensitivity to GX sPLA2 at early and late development stages. Parasitaemia and stage distribution were determined from Diff-Quick-stained smears. Early stages were processed at t 0 h and late stages were processed 24 h later (t 24 h). Cultures were washed and cells were re-suspended at 50% haematocrit in RPMI 0.05% BSA, and then distributed into wells of a 96-well microplate in the presence or absence of respectively 30.0 nM of GX sPLA2 and 0.2 nM of bee venom sPLA2. Non-infected erythrocytes and human serum were processed similarly, after all samples had been adjusted for same phosphatidylcholine (PC) content. […] NEFAs in each sample were measured in triplicate using the NEFA-C kit (WAKO). […]\nA parasite culture was enriched in young parasite stages (rings+early trophozoites) by sorbitol treatment. Parasitaemia (2.5-3%) and stage distribution were determined from Diff-Quick staining of culture smears. […] NEFAs in erythrocyte samples are expressed as the sum of NEFAs from ghosts and corresponding supernatant.\nThe membranolytic activity of the recombinant GX sPLA2 on RBCs infected by either young (ring/young trophozoite) or mature (late trophozoite/schizont) parasites was analysed. […] Parasite cultures were incubated with GX sPLA2 in the absence of serum for 5 h and NEFA production was measured thereafter. […]"}}}
{"molecule": "X: recombinant human group X secreted phospholipase A2 (protein, UniProt O15496 43-165, looked up) Group 10 secretory …: GILELAGTVGCVGPRTPIAYMKYGCFCGLGGHGQPRDAIDWCCHGHDCCYTRAEEAGCSPKTERYSWQCVNQSVLCGPAENKCQELLCKCDQEIANCLAQTEYNLKYLFYPQFLCEPDSPKCD", "values": [{"measurement": "inhibition of Plasmodium growth in Albumax II", "setting": "[1]", "result": "does not efficiently inhibit Plasmodium growth"}, {"measurement": "membranolytic activity on healthy (non-infected) erythrocytes", "setting": "[2]; 30 nM", "result": "left intact"}, {"measurement": "membranolytic activity on parasite culture erythrocytes (NEFA release, words)", "setting": "[2]; GX 30 nM, bee venom 0.2 nM", "result": "induced the release of NEFAs from the parasite culture with predominance for the schizont stages"}]}
